{"source": "patent US7691579B2", "about": "“Methods and compositions for producing an enhanced immune response to a human papillomavirus immunogen” (priority 2005, dated 2010)", "key": {"HPV16 pseudovirus": {"tested_on": "HPV16 pseudovirus", "assay": "Quantitative HPV16 pseudovirus neutralization assay with sera of vaccinated rabbits", "format": "in vivo", "settings": "individual vaccinated rabbits", "source_text": "Development of Antibody Response to L1-VLP: To analyze the effect of the GM-CSF/anti-CD40 antibody combination on antibody response, an ELISA assay was employed to measure the titre of anti-L1-VLP antibodies in mice immunized with the chimeric L1-VLP-L2-E2-E7 construct, with or without the GM-CSF/anti-CD40 antibody combination. Both groups of mice produced high titers of anti-L1 VLP antibodies (FIG. 9). There is no detectable anti-L1 VLP antibody in the serum of mice immunized with E7 peptide in combination with GM-CSF and anti-CD40 in IFA, as expected. […] To confirm the prophylactic potential of the chimeric L1-VLP-L2-E7-E2 construct, the anti body titers raised against the chimeric L1-VLP-E7 E2 construct and the L1-VLPs were compared using a recently developed quantitative HPV16 pseudovirus neutralization assay. […]\nTo test whether the combination of VLP-E7E2 with immune-modulators affects the antibody response, the titer of anti-L1-VLP antibodies was evaluated by ELISA. […] To confirm the prophylactic potential of the chimeric VLPs, we compared the antibody titers raised against the chimeric VLP-E7E2 and wild type VLPs, using a recently developed quantitative HPV16 pseudovirus neutralization assay. […]"}, "[1]": {"tested_on": "EL-4 target cells pulsed with E7 49-57 peptides", "assay": "CTL assay (51Cr release) with spleen cells of immunized C57BL/6 mice", "format": "in vivo", "settings": "given in aqueous solution with VLP-E7E2", "procedure": "(§1) Immunization: Mice were immunized subcutaneously at the base of the tail with the chimeric VLPs. GM-CSF (Preprotech, Rocky Hill, N.J.) was given the day before and the same day as the VLP injection. Anti-CD40 (SouthernBiotech, Birmingham Ala.) was given with the VLP. Mice were also immunized with 50 nmoles of peptide in incomplete Freund's adjuvant (IFA) with or without GM-CSF (5 μg/mouse) and anti-CD40 (10 μg/mouse). All vaccines were prepared immediately prior to injection. Each group had 4 mice, and the pooled spleen cells from four mice were used for assays. 10 μg of VLP-E7E2 was given to a mouse. The MW of the VLP-E7E2 is about 5280 Kd (72×L1@55 Kd=3960 Kd, and 12×L2E7E2@110 kd=1320 Kd). The number of moles of VLP-E7E2 in 10 μg of total protein is about […].\n(§2) CTL assay: Two (or three) weeks after immunization, spleens were aseptically removed and single cell suspensions are prepared. […] Cytolytic activity of cells is measured by a 4-h assay with ^51Cr-labeled EL-4 or C1R.AAD target cells in triplicate wells. Percent ^51Cr release is calculated as 100×(experimental release-spontaneous release)/(maximum release-spontaneous release). Maximum release is determined from supernatants of cells that are lysed by addition of […]. Spontaneous release is determined from target cells culture in medium. Data are expressed as an average from triplicate wells. […]"}, "[2]": {"tested_on": "C1R.AAD target cells pulsed with E7 11-20 and E7 86-93 peptides", "assay": "CTL assay (51Cr release) with spleen cells of immunized AAD mice, response to E7", "format": "in vivo, HLA-A2 transgenic mice (AAD)", "settings": "co-injected in aqueous solution", "procedure": "as §1, §2"}, "CD11c+ dendritic cells": {"tested_on": "CD11c+ dendritic cells", "assay": "FACScan analysis of dendritic cells in draining lymph nodes of immunized mice", "format": "in vivo, HLA-A2 transgenic mice (AAD)", "settings": "in VLP-E7E2 immunized mice, aqueous solution", "procedure": "Draining lymph nodes were collected six days after immunization for FACScan analysis. Mice are immunized with 10 μg of chimeric VLP-E7 with or without GM-CSF or an anti-CD40L antibody. Draining inguinal lymph nodes are collected one week after immunization for FACScan analysis. The immunization protocols employed are as follows: Panel A—VLP-E7; Panel B—VLP-E7F+GM-CSF; Panel C—VLP-E7+anti-CD40 antibody; Panel D—VLP-E7+GM-CSF+anti-CD40 antibody. For Data 003, 010, 017, and 024, the percentage of gated is the sum of the number from the upper left and upper right quadrants. For the rest of the data, the percentage of gated is the number from the upper right quadrant indicating the CD80, CD 86 and CD40 positive cells.\nFlow cytometric analysis and Abs: Lymph node cells (1×10^6) are taken from mice one week after immunization. […] Data files are analyzed using CellQuest software (BD Biosciences, Mountain View, Calif.).\nDCS Play An Important Role In VLP-E7E2/GM-CSF/Anti-CD40 Induced CTL Response In Vivo: It is known that GM-CSF and anti-CD40 play important roles in DC activation (Gurunathan, S. et al. 1998 J. Immunol. 161:4563-4571; Ahlers, J. D. et al. 1997 PNAS USA 94:10856-10861). […] In the Examples reported herein, the phenotypic changes of DC in the draining lymph nodes (DLN) of vaccinated mice were analyzed. […]"}}, "note": "Where “and” joins values, the source holds several entries; their conditions need not be identical. Equal values may be shown once."}
{"molecule": "L1-VLP: VLP of the full length L1 capsid protein of HPV16, control", "values": [{"measurement": "neutralizing titers", "setting": "HPV16 pseudovirus; listed as L1-VLP construct", "value": "40,960 and 163,840"}, {"measurement": "neutralizing titers", "setting": "HPV16 pseudovirus; listed as wild type VLPs", "value": "163,840"}]}
{"molecule": "GM-CSF: murine granulocyte/macrophage colony stimulating factor (Preprotech) (protein, UniProt P01587 18-141, looked up) Granulocyte-macrophage …: APTRSPITVTRPWKHVEAIKEALNLLDDMPVTLNEEVEVVSNEFSFKKLTCVQTRLKIFEQGLRGNFTKLKGALNMTASYYQTYCPPTPETDCETQVTTYADFIDSLKTFLTDIPFECKKPGQK", "values": [{"measurement": "effect on the VLP-E7E2 induced CTL response", "setting": "[1]", "value": "no effect"}, {"measurement": "effect of co-injection on the VLP-E7E2-induced CTL response to E7", "setting": "[2]", "value": "no effect"}, {"measurement": "recruitment or activation of the DCs", "setting": "CD11c+ dendritic cells", "value": "no effect"}]}
